Test results as given in publication PMC8257531.

Experiments:
[1] = co-localisation with ARL15-mClover3, SK-RC-39 cells; details: glycan lost; control: wild-type CNNM3-mCherry
[2] = fluorescence imaging, SK-RC-39 cells, ER/Golgi markers; details: glycan lost; control: wild-type CNNM3-mCherry

B1: CNNM3: N73A (protein)
parent chain: MAAAVAAAGRLGWLFAALCLGNAAGEAAPGPRVLGFCLEEDGAAGAGWVRGGAARDTPDATFLLRLFGPGFANSSWSWVAPEGAGCREEAASPAGEWRALLRLRLRAEAVRPHSALLAVRVEPGGGAAEEAAPPWALGLGAAGLLALAALARGLQLSALALAPAEVQVLRESGSEAERAAARRLEPARRWAGCALGALLLLASLAQAALAVLLYRAAGQRAVPAVLGSAGLVFLVGEVVPAAVSGRWTLALAPRALGLSRLAVLLTLPVALPVGQLLELAARPGRLRERVLELARGGGDPYSDLSKGVLRCRTVEDVLTPLEDCFMLDASTVLDFGVLASIMQSGHTRIPVYEEERSNIVDMLYLKDLAFVDPEDCTPLSTITRFYNHPLHFVFNDTKLDAVLEEFKRGKSHLAIVQKVNNEGEGDPFYEVLGLVTLEDVIEEIIRSEILDESEDYRDTVVKRKPASLMAPLKRKEEFSLFKVSDDEYKVTISPQLLLATQRFLSREVDVFSPLRISEKVLLHLLKHPSVNQEVRFDESNRLATHHYLYQRSQPVDYFILILQGRVEVEIGKEGLKFENGAFTYYGVSALTVPSSVHQSPVSSLQPIRHDLQPDPGDGTHSSAYCPDYTVRALSDLQLIKVTRLQYLNALLATRAQNLPQSPENTDLQVIPGSQTRLLGEKTTTAAGSSHSRPGVPVEGSPGRNPGV
localisation_or_trafficking [1]: decreases | localisation_or_trafficking [2]: abolishes
